Results on three molecules are retold here after patent publication US8158851B2, “Transgenic high tryptophan plants” (Monsanto Technology LLC, priority 2002, dated 2012).

Numbering of substitutions follows the chain as printed. Read-outs that look alike come from different tables or passages of the source.

The test system of data set [1] is Agrobacterium tumefaciens AS. Nature of the data set: Anthranilate synthase enzyme assay and kinetic analysis of purified enzymes. The format is biochemical. As to conditions: for Km: 25° C. Here is the method: Agrobacterium tumefaciens AS wild type and mutant enzymes were expressed in E. coli as described in Example 1. The purification of all the Agrobacterium tumefaciens AS enzymes, including wild type and mutants thereof, was performed at 4° C. The cells (approximate wet weight of 1 g) were suspended in 20 ml of purification buffer (50 mM potassium phosphate, pH 7.3, 10 mM MgCl2, 10 mM 2-mercaptoethanol, 10% glycerol) and lysed by ultrasonication (Branson sonifier Cell Disruptor, W185). Supernatant was collected after centrifugation of the homogenate at 20,000×g for 15 min. The supernatant was subjected to ammonium sulfate fractionation (30 to 65% saturation). The precipitate was collected after centrifugation at 20,000×g for 15 min and dissolved in 3 ml of the purification buffer and then loaded as a whole on an Econo-Pac 10DG desalting column, pre-equilibrated with the same buffer. Fractions containing the enzyme were detected by the developed assay and pooled. The pooled enzyme (4.3 mls) was loaded on a 10 ml DEAF Sephacel (Pharmacia Biotech) column (1.5×7.5 cm) equilibrated with the same buffer. The column was washed with 30 ml of the purification buffer and the enzyme was eluted with 30 ml of 50 mM NaCl in the same buffer. Fractions containing high AS activity were pooled and precipitated by 65% ammonium sulfate saturation and isolated and desalted as above. Fractions containing the enzyme were pooled and stored at −80° C.
The standard assay for Agrobacterium tumefaciens AS was performed at 25° C. in an assay buffer containing 100 mM potassium phosphate, pH 7.0, 10 mM MgCl2, 1 mM dithiothreitol, 200 μM chorismate and 10 mM L-glutamine. The reaction was started by adding 30 μl of enzyme to the reaction mixture and mixing. The formation of anthranilate was directly monitored by the absorbance increase at 320 m for 3 minutes. Initial rate of reaction was calculated as unit absorbance increase per second based on the slope of the absorbance change over the reaction time. Km for chorismate (Km^Cho) was determined in the total volume of 1 ml assay buffer containing 100 mM potassium phosphate, pH 7.0, 10 mM MgCl2, 1 mM dithiothreitol with 10 mM L-glutamine and varying the concentration of chorismate between 2.5-100 μM chorismate. The Km for glutamine (Km^Gln) was determined in the total volume of 1 ml assay buffer containing 100 mM potassium phosphate, pH 7.0, 10 mM MgCl2, 1 mM dithiothreitol with 200 μM chorismate and varying the concentration of L-glutamine between 0.1-2 mM L-glutamine. IC50 for tryptophan (IC50^Trp) was determined with in the total volume of 1 ml assay buffer containing 100 mM potassium phosphate, pH 7.0, 10 mM MgCl2, 1 mM dithiothreitol, 10 mM L-glutamine, 200 μM chorismate and varying the concentration of L-tryptophan between 0.1-10 mM L-tryptophan. Kinetic parameters and IC50 of AS were calculated after fitting the data to a non-linear regression program (GraFit).

The next data set has as its system soy seed. The experiment in a line: Free amino acid analysis of soy seed (tryptophan content). The following applies: R1 soy seeds expressing the mutant protein. The format is in vivo, Glycine max. Here is the method:
Amino Acid Extraction: About 50 mg of crushed soy seed (5 mg of Arabidopsis) material was placed in each centrifuge vial. One milliliter of 5% trichloroacetic acid was added to each sample (100 μl for Arabidopsis). The samples were vortexed, and allowed to sit, with agitation, at room temperature for 15 min. They were then microcentrifuged for 15 min at 14000 rpm. Some of the supernatant was then removed, placed in a HPLC vial and sealed. Samples were kept at 4° C. in the analysis queue.
Amino Acid Analysis: The reagents utilized for amino acid analysis included the OPA reagent (o-phthalaldehyde and 3-mercaptopropionic acid in borate buffer (Hewlett-Packard, PN 5061-3335)) where the borate buffer (0.4 N in water, pH 10.2). The analysis was performed using the Agilent 1100 series HPLC system as described in the Agilent Technical Publication, “Amino Acid Analysis Using Zorbax Eclipse-AAA Columns and the Agilent 1100 HPLC”, Mar. 17, 2000. First, 0.5 μl of the sample was derivatized with 2.5 μl of OPA reagent in 10 μl of borate buffer. Second, the derivative is injected onto a Eclipse XDB-C18 5 μm, 4.6×150 mm column using a flow rate of 1.2 ml/min. Amino acid concentrations were measured using fluorescence: excitation at 340 nm, emission at 450 nm. Elution was with a gradient of HPLC Buffers A and B according to Table A, where HPLC Buffer A was 40 mM Na2HPO4, pH=7.8 and HPLC Buffer B was 9:9:2::Methanol:Acetonitrile:Water.
Amino acid standards were prepared from the dry chemicals, using all amino acids of interest. Proline analysis required an additional derivatization step with 9-fluorenylmethyl-chloroformate (FMOC). Amino acid standards were also sometimes purchased in concentrations ranging from 0 to 100 μg/ml. Samples were reported in μg/g of seed powder.
Mature R1 seed is produced and analyzed for free amino acid content using fluorescence detection as described in Agilent Technologies Technical Bulletin REV14. Five seeds are chosen for single seed analysis from each event. […] The highest levels of tryptophan have a negative impact on germination.

B1: F298A (protein)
chain: MVTIIQDDGAETYETKGGIQVSRKRRPTDYANAIDNYIEKLDSHRGAVFSSNYEYPGRYTRWDTAIVDPPLGISCFGRKMWIEAYNGRGEVLLDFITEKLKATPDLTLGASSTRRLDLTVNEPDRVFTEEERSKIPTVFTALRAIVDLFYSSADSAIGLFGAFGYDLAFQFDAIKLSLARPEDQRDMVLFLPDEILVVDHYSAKAWIDRYDFEKDGMTTDGKSSDITPDPFKTTDTIPPKGDHRPGEYSELVVKAKESFRRGDLFEVVPGQKFMERCESNPSAISRRLKAINPSPYSAFINLGDQEYLVGASPEMFVRVSGRRIETCPISGTIKRGDDPIADSEQILKLLNSKKDESELTMCSDVDRNDKSRVCEPGSVKVIGRRQIEMYSRLIHTVDHIEGRLRDDMDAFDGFLSHAWAVTVTGAPKLWAMRFIEGHEKSPRAWYGGAIGMVGFNGDMNTGLTLRTIRIKDGIAEVRAGATLLNDSNPQEEEAETELKASAMISAIRDAKGTNSAATKRDAAKVGTGVKILLVDHEDSFVHTLANYFRQTGATVSTVRSPVAADVFDRFQPDLVVLSPGPGSPTDFDCKATIKAARARDLPIFGVCLGLQALAEAYGGELRQLAVPMHGKPSRIRVLEPGLVFSGLGKEVTVGRYHSIFADPATLPRDFIITAESEDGTIMGIEHAKEPVAAVQFHPESIMTLGQDAGMRMIENVVVHLTRKAKTKAA
modifications: An A. tumefaciens mutant.
As a reminder, the Km is the substrate concentration at which the rate is half of its maximum. What is called IC50 is the concentration that gives 50% inhibition. The term kcat denotes the maximal rate divided by the concentration of active sites. Consider B1, for which the Km came out at 100 µM in data set [1] (pH 7.0, 200 μM chorismate, L-glutamine varied, read-out: Km^Gln) and 9.2 µM in data set [1] (pH 7.0, 10 mM L-glutamine, chorismate varied, read-out: Km^Cho). In addition, in data set [1] (inhibition by L-tryptophan, 10 mM L-glutamine, 200 μM chorismate), the IC50 came out at 5.5 µM. The kcat in data set [1] (purified enzyme from E. coli) came out at 0.46 s⁻¹.

B2: S51C (protein)
chain: B1 chain with S51C, A298F
modifications: An A. tumefaciens mutant.
On to B2, for which, in the data set with soy seed, the amounts of tryptophan entry is given as “very high amounts of tryptophan”.

B3: V48Y (protein)
chain: B1 chain with V48Y, A298F
modifications: An A. tumefaciens mutant.
For the molecule B3, the amounts of tryptophan result in the data set on soy seed was “very high amounts of tryptophan”.
